Urea concentration required to remove, percentage of BAF complexes that contain wild-type SS18 and urea concentration required to dissociate data for two substances are collected here from patent publication US20190269761A1.

For experiment [1], the target named is mSWI/SNF (BAF) complexes, endogenous. Description: urea denaturation and IP, as restated in the discussion.
For experiment [2] the target is unchanged. Description: quantitative densitometry of anti-SS18 immunoblot of glycerol gradient, Aska-SS cells bearing SS18-SSX1.
For experiment [3] the target is unchanged. Nature of the experiment: urea denaturation of 293T nuclear extract followed by anti-Brg IP and immunoblot.
Experiment [4] shares this target. Nature of the experiment: urea denaturation and IP, as restated in the discussion; complexes of synovial sarcoma cells.

With “SS18 (wild-type, endogenous human) (from UniProt Q15532 2-418)”, the urea concentration required to remove in experiment [1] was found to be 8 M. The substance further yielded a percentage of BAF complexes that contain wild-type SS18 in experiment [2] of 2 to 8%. The urea concentration required to dissociate in experiment [3] was 5 M.
For the substance “SS18-SSX1 fusion protein (from UniProt Q15532 1-379)”, the urea concentration required to remove in experiment [4] worked out at 8 M.
